Test results as given in article PMC3988878, “Ultrastructural characterisation of Bacillus subtilis TatA complexes suggests they are too small to form homooligomeric translocation pores” (Biochimica et Biophysica Acta, 2013).

Target: the molecule itself
Assay: SEC; Superdex 200 HR 10/30, calibrated; 240 μl of concentrated Talon eluate; 20 mM Trizma, 150 mM NaCl, 0.02% DDM; 0.5 ml/min; fractions immunoblotted for the His-tag

B1: B. subtilis TatAd with a C-terminal His-tag (natural protein, UniProt O31467 1-70, looked up)
chain: MFSNIGIPGLILIFVIALIIFGPSKLPEIGRAAGRTLLEFKSATKSLVSGDEKEEKSAELTAVKQDKNAG
notes: TatAd, Bacillus subtilis, product of the tatAd-his gene in pBAD24 (pBAd-His); also called TatAd-His; TatAd complex; not shown: His6, C-terminal, kept
B1: binds.
